Assay results taken from the supplement of paper PMC7125110.
± gives the standard error. Fewer inactive variants are shown than the library holds.

B1: glmS ribozyme (parent)
chain: AUAAAAGCGCCAGAACUACAGAAAUGUAGUUGACGAGGAGGAGGUUUAUCGAAUUUUCGGCGGAUGCCUCCAAA

What was measured:
Settings in all cases: with glucosamine-6-phosphate
glucosamine-6-phosphate [1] = variants of: B1; assay: self-cleavage kobs at 40 uM GlcN6P; higher = faster cleavage; RNA array
In short: (§1)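 Using a hybridised Cy3 probe at 37 °C, barcoded ribozyme variants transcribed in situ by E. coli RNA polymerase on sequenced MiSeq chips were monitored across tiles imaged over ~14 h. The flow contained glucosamine-6-phosphate from 40 μM to 10 mM in HEPES/KCl/Mg(OAc)2 buffer. Signals were normalised to baseline and to non-cleaving reference variants before per-tile medians were fit to one- or two-exponential decays to yield kobs. Weighted Michaelis–Menten fits across concentrations gave kcat and KM.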

glucosamine-6-phosphate [2] = variants of: B1; assay: self-cleavage kobs at 10000 uM GlcN6P; higher = faster cleavage; RNA array
In short: as §1

glucosamine-6-phosphate [3] = variants of: B1; assay: self-cleavage kobs at 160 uM GlcN6P; higher = faster cleavage; RNA array
In short: as §1

glucosamine-6-phosphate [4] = variants of: B1; assay: self-cleavage kobs at 640 uM GlcN6P; higher = faster cleavage; RNA array
In short: as §1

glucosamine-6-phosphate [5] = variants of: B1; assay: self-cleavage kobs at 2500 uM GlcN6P; higher = faster cleavage; RNA array
In short: as §1

| Variant | self-cleavage kobs at 40 uM GlcN6P (glucosamine-6-phosphate [1]) | self-cleavage kobs at 10000 uM GlcN6P (glucosamine-6-phosphate [2]) | self-cleavage kobs at 160 uM GlcN6P (glucosamine-6-phosphate [3]) | self-cleavage kobs at 640 uM GlcN6P (glucosamine-6-phosphate [4]) | self-cleavage kobs at 2500 uM GlcN6P (glucosamine-6-phosphate [5]) |
| --- | --- | --- | --- | --- | --- |
| A36G G38C U55A | < 1e-05 s⁻¹ | < 1e-05 s⁻¹ |  |  |  |
| A12G C16G A53U C71A | < 1e-05 s⁻¹ |  |  |  |  |
| C58A G59U G60U | < 1e-05 s⁻¹ | < 1e-05 s⁻¹ |  |  |  |
| G37C A52U A53U | < 1e-05 s⁻¹ |  |  |  |  |
| G43A C61A | < 1e-05 s⁻¹ |  | < 1e-05 s⁻¹ | < 1e-05 s⁻¹ |  |
| G9A C58G | < 1e-05 s⁻¹ |  | < 1e-05 s⁻¹ | < 1e-05 s⁻¹ | < 1e-05 s⁻¹ |
| C34G A64C U65A | < 1e-05 s⁻¹ |  |  |  |  |
| G9C C70U | < 1e-05 s⁻¹ | < 1e-05 s⁻¹ | < 1e-05 s⁻¹ | < 1e-05 s⁻¹ | < 1e-05 s⁻¹ |
| G13U C50G C61G G62A U65G C68U | 9.2e-05 ± 3.1e-05 s⁻¹ | 3.93e-05 ± 1.7e-05 s⁻¹ |  |  |  |
| G41U A42U C70A | 0.000142 ± 2.3e-05 s⁻¹ | 0.00204 ± 0.00044 s⁻¹ |  |  |  |
| C11G G38C | < 1e-05 s⁻¹ |  |  | < 1e-05 s⁻¹ | < 1e-05 s⁻¹ |
| G13U A53G G63A C68U | < 1e-05 s⁻¹ | < 1e-05 s⁻¹ |  |  |  |
| G7A A12C A42C U49A G60C | < 1e-05 s⁻¹ | < 1e-05 s⁻¹ |  |  |  |
| G7C A12G C67A | < 1e-05 s⁻¹ | < 1e-05 s⁻¹ |  |  |  |
| U49C G62C | < 1e-05 s⁻¹ |  |  | < 1e-05 s⁻¹ | < 1e-05 s⁻¹ |
| A6C G29U G32A U57A | < 1e-05 s⁻¹ | < 1e-05 s⁻¹ |  | < 1e-05 s⁻¹ |  |
| G41A A64C | < 1e-05 s⁻¹ | < 1e-05 s⁻¹ | < 1e-05 s⁻¹ | < 1e-05 s⁻¹ | < 1e-05 s⁻¹ |
| C10U G29A U47G | < 1e-05 s⁻¹ |  |  |  |  |
| U31C G44A | < 1e-05 s⁻¹ |  | < 1e-05 s⁻¹ |  |  |
| G32C A53U G66U | < 1e-05 s⁻¹ |  |  |  |  |
| C8U C68G | 0.000619 ± 0.00023 s⁻¹ | 0.000231 ± 5.8e-05 s⁻¹ |  |  |  |
| A6U G13C A15U | < 1e-05 s⁻¹ | < 1e-05 s⁻¹ |  |  |  |
| A15U U30C G51C | < 1e-05 s⁻¹ |  |  |  |  |
| A24C A48C G62U G63U C70G | < 1e-05 s⁻¹ | < 1e-05 s⁻¹ |  |  |  |
| A12C U54C | 0.00107 ± 0.00014 s⁻¹ | 0.0203 ± 0.0043 s⁻¹ | 0.00117 ± 0.00027 s⁻¹ | 0.0063 ± 0.0021 s⁻¹ | 0.0137 ± 0.0032 s⁻¹ |
| A36C G41A C68A | < 1e-05 s⁻¹ | < 1e-05 s⁻¹ |  | < 1e-05 s⁻¹ | < 1e-05 s⁻¹ |
